# From US20120058118A1 (Boehringer Ingelheim, published 2012)
# Legend:
# [1] = biological target: T1, human A-beta(1-40) peptide, monomeric (BAM) (human, biotin at the C-terminus in capture ELISA, SPR and TR-FRET; not biotinylated where coated directly (Example 7)); assay: TR-FRET competition; labelled competitor not given
# T1 construct: synthetic peptide (Anaspec), TFA/HFIP treated to give monomer; also called monomeric A-beta
# [2] = biological target: T1, human A-beta(1-40) peptide, monomeric …; assay: TR-FRET competition, mean IC50
Binder,IC50 [1] [nM],IC50 [2] [nM]
"ABII019 (VHH, humanized variant of ABII002) VHH: EVQLLESGGGLVQPGGSLRLSCAHSGPTFRTDTMGWFRQAPGKGREFVAAVTWNSGRINYADSVKGRFTISRDNSKNTVYLQMNSLRPEDTAVYYCAAHRFVVGGNRVEDWRYWGQGTLVTVSS",14,14
"ABII020 (VHH, humanized variant of ABII002) VHH: EVQLLESGGGLVQPGGSLRLSCAHSGPTFRTDTMGWFRQAPGKGREFVAAVTWNSGRINYADSVKGRFTISRDNSKNTLYLQMNSLRPEDTAVYYCAAHRFVVGGNRVEDWRYWGQGTLVTVSS",110,110
"ABII021 (VHH, humanized variant of ABII002) VHH: EVQLLESGGGLVQPGGSLRLSCAHSGPTFRTDTMGWFRQAPGKGREFVAAVTWNSGRINYADSVKGRFTISRDNSKNAVYLQMNSLRPEDTAVYYCAAHRFVVGGNRVEDWRYWGQGTLVTVSS",24,24
"ABII003 (VHH, humanized variant of ABII002) VHH: EVQLLESGGGLVLPGGSLRLSCVHSGPTFRTDTMGWFRQAPGKGREFVAAVTWNSGRINYADSVKGRFTVSRDNTRNAAYLQMSGLKDEDTAVYYCTAHRFVVGGNRVEDWRYWGQGTLVTVSS",2.1,2.1
"ABII014 (VHH, humanized variant of ABII002) VHH: EVQLLESGGGLVLPGGSLRLSCVHSGPTFRTDTMGWFRQAPGKGREFVAAVTWNSGRINYADSVKGRFTVSRDNTRNAAYLQMSGLRDEDTAVYYCTAHRFVVGGNRVEDWRYWGQGTLVTVSS",1.3,1.3
"ABII004 (VHH, humanized variant of ABII002) VHH: EVQLLESGGGLVQPGGSLRLSCVHSGPTFRTDTMGWFRQAPGKGREFVAAVTWNSGRINYADSVKGRFTVSRDNTRNAAYLQMSGLKDEDTAVYYCTAHRFVVGGNRVEDWRYWGQGTLVTVSS",2.1,2.1
"ABII006 (VHH, humanized variant of ABII002) VHH: EVQLLESGGGLVLPGGSLRLSCVASGPTFRTDTMGWFRQAPGKGREFVAAVTWNSGRINYADSVKGRFTVSRDNTRNAAYLQMSGLKDEDTAVYYCTAHRFVVGGNRVEDWRYWGQGTLVTVSS",80,80
"ABII007 (VHH, humanized variant of ABII002) VHH: EVQLLESGGGLVLPGGSLRLSCVHSGPTFRTDTMGWFRQAPGKGREFVAAVTWNSGRINYADSVKGRFTISRDNTRNAAYLQMSGLKDEDTAVYYCTAHRFVVGGNRVEDWRYWGQGTLVTVSS",1.6,1.6
"ABII018 (VHH, humanized variant of ABII002) VHH: EVQLLESGGGLVQPGGSLRLSCVHSGPTFRTDTMGWFRQAPGKGREFVAAVTWNSGRINYADSVKGRFTVSRDNTRNAAYLQMSGLKPEDTAVYYCTAHRFVVGGNRVEDWRYWGQGTLVTVSS",3.2,3.2
"ABII009 (VHH, humanized variant of ABII002) VHH: EVQLLESGGGLVLPGGSLRLSCVHSGPTFRTDTMGWFRQAPGKGREFVAAVTWNSGRINYADSVKGRFTVSRDNTKNAAYLQMSGLKDEDTAVYYCTAHRFVVGGNRVEDWRYWGQGTLVTVSS",1.7,1.7
"ABII013 (VHH, humanized variant of ABII002) VHH: EVQLLESGGGLVLPGGSLRLSCVHSGPTFRTDTMGWFRQAPGKGREFVAAVTWNSGRINYADSVKGRFTVSRDNTRNAAYLQMSSLKDEDTAVYYCTAHRFVVGGNRVEDWRYWGQGTLVTVSS",1.6,1.6
"ABII010 (VHH, humanized variant of ABII002) VHH: EVQLLESGGGLVLPGGSLRLSCVHSGPTFRTDTMGWFRQAPGKGREFVAAVTWNSGRINYADSVKGRFTVSRDNTRNTAYLQMSGLKDEDTAVYYCTAHRFVVGGNRVEDWRYWGQGTLVTVSS",1.9,1.9
"ABII016 (VHH, humanized variant of ABII002) VHH: EVQLLESGGGLVLPGGSLRLSCVHSGPTFRTDTMGWFRQAPGKGREFVAAVTWNSGRINYADSVKGRFTVSRDNTRNAAYLQMSGLKPEDTAVYYCTAHRFVVGGNRVEDWRYWGQGTLVTVSS",2.4,2.4
"ABII015 (VHH, humanized variant of ABII002) VHH: EVQLLESGGGLVLPGGSLRLSCVHSGPTFRTDTMGWFRQAPGKGREFVAAVTWNSGRINYADSVKGRFTVSRDNTRNAAYLQMSGLKAEDTAVYYCTAHRFVVGGNRVEDWRYWGQGTLVTVSS",1.8,1.8
"ABII011 (VHH, humanized variant of ABII002) VHH: EVQLLESGGGLVLPGGSLRLSCVHSGPTFRTDTMGWFRQAPGKGREFVAAVTWNSGRINYADSVKGRFTVSRDNTRNALYLQMSGLKDEDTAVYYCTAHRFVVGGNRVEDWRYWGQGTLVTVSS",24,24
"ABII012 (VHH, humanized variant of ABII002) VHH: EVQLLESGGGLVLPGGSLRLSCVHSGPTFRTDTMGWFRQAPGKGREFVAAVTWNSGRINYADSVKGRFTVSRDNTRNAAYLQMNGLKDEDTAVYYCTAHRFVVGGNRVEDWRYWGQGTLVTVSS",1.5,1.5
"ABII017 (VHH, humanized variant of ABII002) VHH: EVQLLESGGGLVLPGGSLRLSCVHSGPTFRTDTMGWFRQAPGKGREFVAAVTWNSGRINYADSVKGRFTVSRDNTRNAAYLQMSGLKDEDTAVYYCAAHRFVVGGNRVEDWRYWGQGTLVTVSS",2.4,2.4
"ABII005 (VHH, humanized variant of ABII002) VHH: EVQLLESGGGLVLPGGSLRLSCAHSGPTFRTDTMGWFRQAPGKGREFVAAVTWNSGRINYADSVKGRFTVSRDNTRNAAYLQMSGLKDEDTAVYYCTAHRFVVGGNRVEDWRYWGQGTLVTVSS",3.3,3.3
"ABII008 (VHH, humanized variant of ABII002) VHH: EVQLLESGGGLVLPGGSLRLSCVHSGPTFRTDTMGWFRQAPGKGREFVAAVTWNSGRINYADSVKGRFTVSRDNSRNAAYLQMSGLKDEDTAVYYCTAHRFVVGGNRVEDWRYWGQGTLVTVSS",1.9,1.9

# The next lines start with the values.
IC50 [1] [nM],IC50 [2] [nM],Binder
18,18,"ABII051 (VHH, humanized variant of ABII050) VHH: EVQLLESGGGLVQPGGSLRLSCAASGRTFNNYNMGWFRQAPGKGREFVAAVSRSGVSTYYADSVKGRFTISRDNAKNAVYLQMNSLRPEDTAIYYCGAAYRGTAINVRRSYDSWGQGTLVTVSS"
19,19,"ABII052 (VHH, humanized variant of ABII050) VHH: EVQLLESGGGLVQPGGSLRLSCAASGRTFNNYNMGWFRQAPGKGREFVAAVSRSGVSTYYADSVKGRFTISRDNSKNAVYLQMNSLRPEDTAIYYCGAAYRGTAINVRRSYDSWGQGTLVTVSS"
73,73,"ABII058 (VHH, humanized variant of ABII050) VHH: EVQLLESGGGLVQPGGSLRLSCAASGRTFNNYNMGWFRQAPGKGREFVAAVSRSGVSTYYADSVKGRFTISRDNSKNTLYLQMNSLRPEDTAVYYCAAAYRGTAINVRRSYDSWGQGTLVTVSS"
46,46,"ABII057 (VHH, humanized variant of ABII050) VHH: EVQLLESGGGLVQPGGSLRLSCAASGRTFNNYNMGWFRQAPGKGREFVAAVSRSGVSTYYADSVKGRFTISRDNSKNTVYLQMNSLRPEDTAVYYCAAAYRGTAINVRRSYDSWGQGTLVTVSS"
22,22,"ABII055 (VHH, humanized variant of ABII050) VHH: EVQLLESGGGLVQPGGSLRLSCAASGRTFNNYNMGWFRQAPGKGREFVAAVSRSGVSTYYADSVKGRFTISRDNAKNAVYLQMNSLRPEDTAVYYCGAAYRGTAINVRRSYDSWGQGTLVTVSS"
20,20,"ABII053 (VHH, humanized variant of ABII050) VHH: EVQLLESGGGLVQPGGSLRLSCAASGRTFNNYNMGWFRQAPGKGREFVAAVSRSGVSTYYADSVKGRFTISRDNAKNTVYLQMNSLRPEDTAIYYCGAAYRGTAINVRRSYDSWGQGTLVTVSS"
29,29,"ABII056 (VHH, humanized variant of ABII050) VHH: EVQLLESGGGLVQPGGSLRLSCAASGRTFNNYNMGWFRQAPGKGREFVAAVSRSGVSTYYADSVKGRFTISRDNAKNAVYLQMNSLRPEDTAIYYCAAAYRGTAINVRRSYDSWGQGTLVTVSS"
2.4,–,"ABII061 (VHH, humanized variant of ABII050) VHH: EVQLLESGGGLVQPGGSLRLSCAASGRTFNNYNMGWFRQAPGKGREFVAAVSRSGVSTYYADSVKGRFTISRDNSKNTVYLQMNSLRPEDTAVYYCGAAYRGTAINVRRSYSSWGQGTLVTVSS"
50,50,"ABII060 (VHH, humanized variant of ABII050) VHH: EVQLLESGGGLVQPGGSLRLSCAASGRTFNNYNMGWFRQAPGKGREFVAAVSRSGVSTYYADSVKGRFTISRDNSKNTLYLQMNSLRPEDTAVYYCAAAYRGTAINVRRSYSSWGQGTLVTVSS"
51,51,"ABII054 (VHH, humanized variant of ABII050) VHH: EVQLLESGGGLVQPGGSLRLSCAASGRTFNNYNMGWFRQAPGKGREFVAAVSRSGVSTYYADSVKGRFTISRDNAKNALYLQMNSLRPEDTAIYYCGAAYRGTAINVRRSYDSWGQGTLVTVSS"
3.1,–,"ABII037 (VHH, humanized variant of ABII002) VHH: EVQLLESGGGLVQPGGSLRLSCVHSGPTFRTDTMGWFRQAPGKGREFVAAVTWNSGRINYADSVKGRFTISRDNSKNTAYLQMNSLRAEDTAVYYCAAHRFVVGGNRVEDWRYWGQGTLVTVSS"
